B1: Far upstream element-binding protein 2, residues 142 to 214; numbered along this chain, Q92945 (parent)
chain: RTSMTEEYRVPDGMVGLIIGRGGEQINKIQQDSGCKVQISPDSGGLPERSVSLTGAPESVQKAKMMLDDIVSR
B2: Tripartite motif-containing protein 44, residues 174 to 218; numbered along this chain, Q96DX7 (parent)
chain: VAKRKCPDHGLDLSTYCQEDRQLICVLCPVIGAHQGHQLSTLDEA

Variants of: B1
Assay: abundance fitness (aPCA) (normalised: wild type 0, dead -1); higher = more abundant; growth selection in yeast, the domain comes from the species named
Conditions: Homo sapiens

Abundance fitness: each site, then its substitutions
M4: D -0.106; P -0.365; F 0.02; G -0.431; H -0.107; E -0.085; I -0.096; V -0.069; C 0.045; A -0.716; N -0.178; Q 0.057; K 0.029; W -0.15; R -0.079; T -0.063; S -0.072; L -0.002
E7: H 0.043; P -0.137; W -0.1; C -0.178; T 0.046; Q 0.017; I -0.028; V -0.194; S -0.088; K -0.115; M -0.02; Y 0.028; N -0.109; L 0.021; D -0.036; A -0.136; F 0.074
T2: D 0.003; M 0.104; H -0.138; N 0.109; A -0.13; G -0.04; E -0.025; P -0.227; Y -0.016; R -0.169; I -0.04; V 0.004; Q -0.421; L -0.079; W -0.567; S 0.071; C -0.198; K -0.007
S3: E 0.151; D 0.17; L 0.074; P 0.043; G 0.003; F 0.251; I 0.137; H 0.009; A 0.028; Q 0.124; N 0.224; Y 0.125; C 0.152; V 0.144; W 0.05; K 0.219; T 0.213
V10: C -0.137; A -0.289
Y8: H -0.12; L -0.089; F -0.116; I -0.061; D -0.477; C -0.609; N -0.536; T -0.214; K -0.417; R -0.455; E -0.496; P -0.342; Q -0.51; G -0.576; W -0.007; S -0.472; V -0.057
E6: W -0.086; I -0.086; D -0.171; G -0.189; L 0.07; Y -0.147; K -0.027; H -0.062; V 0.097; R -0.068; N -0.255; S -0.017; F -0.1; M 0.187; T 0.125; C 0.051; Q 0.045; A -0.021
R1: L -0.071; I 0.195; K 0.166; M 0.19; A -0.205; H -0.256; E 0.075; S -0.072; Y -0.195; W -0.143; N 0.101; G -0.071; F -0.297; P -0.27; D 0.017; Q 0.036
R9: A -0.145; N 0.078; W -0.033; S -0.024; Q 0.137; K 0.119; H 0.135; G -0.235; P 0.041; M 0.064; D -0.155; T 0.053; E -0.094; C -0.132; V -0.046; F 0.068; Y 0.025; I 0.055; L 0.076
T5: P -0.62; H -0.235; R -0.168; Y -0.248; D -0.319; N -0.16; E -0.304; Q -0.117; W -0.456; V -0.154; A -0.248; F -0.331; C -0.125; S -0.11; G -0.485; L -0.384

Variants of: B2
Assay: as above
Conditions: Homo sapiens

Abundance fitness: each site, then its substitutions
Y16: W -0.039
Q18: H 0.035; R -0.043
L11: D -0.198
V30: T 0.051
C6: N -0.889
C17: E -0.546
I31: M 0.016
K5: W -0.308
